Molecular target: N-terminal His-tagged ubiquitin (15N-labelled) (UniProt P0CG48 1-76, 15N-labelled)
Assay: NMR titration

B1: N-terminal His-tagged human alpha4 (amino acid residues 1-222) (domain or fragment, UniProt P78318 1-222, looked up)
chain: MAAEDELQLPRLPELFETGRQLLDEVEVATEPAGSRIVQEKVFKGLDLLEKAAEMLSQLDLFSRNEDLEEIASTDLKYLLVPAFQGALTMKQVNPSKRLDHLQRAREHFINYLTQCHCYHVAEFELPKTMNNSAENHTANSSMAYPSLVAMASQRQAKIQRYKQKKELEHRLSAMKSAVESGQADDERVREYYLLHLQRWIDISLEEIESIDQEIKILRERD
How did the Kd turn out when B1 was run?
The Kd was > 100 µM.
